T1: TGF-β3 (Homo sapiens (Human)) (UniProt P10600)
T1 sequence: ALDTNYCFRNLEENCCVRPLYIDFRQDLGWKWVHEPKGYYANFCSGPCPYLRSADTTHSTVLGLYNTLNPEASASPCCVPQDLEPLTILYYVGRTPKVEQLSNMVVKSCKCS


Assays:
[1] = molecular target: T1, TGF-β3 (Homo sapiens (Human))
[2] = molecular target: TGF-β1 (Homo sapiens (Human)) (UniProt P01137)
[3] = molecular target: T1, TGF-β3 (Homo sapiens (Human)); remark: listed apart in the source
[4] = molecular target: TGF-β1 (Homo sapiens (Human)) (UniProt P01137); remark: listed apart in the source

TGF-β1 (Homo sapiens (Human)), sequence (P01137 279-390 limits assumed): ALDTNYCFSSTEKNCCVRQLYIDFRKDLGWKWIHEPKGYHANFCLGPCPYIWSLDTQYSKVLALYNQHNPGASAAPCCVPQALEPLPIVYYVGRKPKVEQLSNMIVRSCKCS

| IC50 for TGF-β3 (neutralization, Mv1Lu luciferase reporter cells) [1] [nM] | IC50 for TGF-β1 (neutralization, Mv1Lu luciferase reporter cells) [2] [nM] | fold potency against TβRII-ED (neutralization, Mv1Lu luciferase reporter cells) [3] [fold] | fold potency against TβRII-ED (neutralization, Mv1Lu luciferase reporter cells) [4] [fold] | Binder |
| --- | --- | --- | --- | --- |
| 0.045 | 0.098 | 1000 | 1000 | (TβRIIb)^2 homo-bivalent single-chain recombinant trap (designed binder, from a related filing) APMAEGGGQNHHHHHHHHGGSFNPRIPPHVQKSVNNDMIVTDNNGAVKFPQLCKFCDVRFSTCDNQKSCMSNCSITSICEKPQEVCVAVWRKNDENITLETVCHDPKLPYHDFILEDAASPKCIMKEKKKPGETFFMCSCSSDECNDNIIFSEEYNTSNPDIPPHVQKSDVEMEAQKDEIICPSCNRTAHPLRHINNDMIVTDNNGAVKFPQLCKFCDVRFSTCDNQKSCMSNCSITSICEKPQEVCVAVWRKNDENITLETVCHDPKLPYHDFILEDAASPKCIMKEKKKPGETFFMCSCSSDECNDNIIFSEEYNTSNPD |
| 0.336 | 1.36 | 100 | 100 | (TβRII)^2 homo-bivalent single-chain recombinant trap (designed binder, from a related filing) TIPPEQKLISEEDLLHVQKSVNNDMIVTDNNGAVKFPQLCKFCDVRFSTCDNQKSCMSNCSITSICEKPQEVCVAVWRKNDENITLETVCHDPKLPYHDFILEDAASPKCIMKEKKKPGETFFMCSCSSDECNDNIIFSEEYNTSNPDGGRHVQKSVNNDMIVTDNNGAVKFPQLCKFCDVRFSTCDNQKSCMSNCSITSICEKPQEVCVAVWRKNDENITLETVCHDPKLPYHDFILEDAASPKCIMKEKKKPGETFFMCSCSSDECNDNIIFSEEYNTSNPDHHHHHH |

— patent publication US20110236309A1
